The text below walks through data of patent publication US20250011363A1, “OPTIMIZED SHORTENED PEPTIDE THAT BINDS TO ACETYLCHOLINE RECEPTOR, AND USE THEREOF” (SKINMED CO., LTD., priority 2021, published 2025).

This assay has as its target acetylcholine receptor (Homo sapiens, UniProt P02708). The assay can be described thus: SPR binding affinity (RU) of optimized 5mer/6mer/7mer peptides, Examples 6-7. The note with it: SPR; for Binding affinity: peptides at 10 μM, 6mer-2 Bottom sequence; for Binding affinity, relative value to the RRQRR sequence: XRRQRR-6mer and RRQRRX-6mer. The essentials: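 Peptides were tested at 10 μM by surface plasmon resonance against the receptor, with binding reported as response units. Library sequences were built from frequent (top) or infrequent (bottom) amino acid combinations in 5mer, 6mer-1 and 6mer-2 series.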
Background: In SPR one partner is held on a chip, and binding of the other changes the refractive index at the surface.

Sequence of acetylcholine receptor (P02708 21-457): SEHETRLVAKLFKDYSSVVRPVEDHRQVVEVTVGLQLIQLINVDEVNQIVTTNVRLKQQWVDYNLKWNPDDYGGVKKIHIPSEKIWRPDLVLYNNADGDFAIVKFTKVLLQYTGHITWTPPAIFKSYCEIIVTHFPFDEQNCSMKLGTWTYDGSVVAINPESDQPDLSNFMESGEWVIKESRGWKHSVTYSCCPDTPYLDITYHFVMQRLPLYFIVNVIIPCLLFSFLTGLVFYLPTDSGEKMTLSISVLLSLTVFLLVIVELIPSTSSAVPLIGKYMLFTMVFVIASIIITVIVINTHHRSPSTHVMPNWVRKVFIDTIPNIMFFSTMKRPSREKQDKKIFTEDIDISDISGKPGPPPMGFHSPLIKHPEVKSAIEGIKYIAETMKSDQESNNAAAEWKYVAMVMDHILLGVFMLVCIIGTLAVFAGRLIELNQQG

For 6mer-2-1154 (RYEARR), the Binding affinity is recorded as 30 Ru.
On to 6mer-2-1155 (RNTNRK), for which the Binding affinity turned out to be 25 Ru.
Same read-out and setting: in the case of 6mer-2-1156 (KMNARR) it was 35 Ru; in that of 6mer-2-1157 (RNTDRK), 37 Ru; in that of 6mer-2-1158 (RDNIRK), 37 Ru.
The same measure, in the same setting: in the case of 6mer-2-1159 (KDMGKR) it was 40 Ru; in that of 6mer-2-1160 (RITVKK), 23 Ru.
Same read-out and setting: the same measure for 6mer-2-1161 (RHSFKK): 27 Ru; for 6mer-2-1162 (KMSERR): 34 Ru; for 6mer-2-1163 (KCHFKK): 37 Ru.
For 6mer-2-1164 (RYNHKR), the Binding affinity was 33 Ru.
Still for that read-out and setting: the same measure for 6mer-2-1165 (RIKAKK): 30 Ru.
The same measure, in the same setting: in the case of 6mer-2-1166 (KCSIKK) it was 26 Ru.
With 6mer-2-1167 (RCAPKR), the Binding affinity was 27 Ru.
On the same count and under the same terms, the same measure for 6mer-2-1168 (KMKPKK): 41 Ru; for 6mer-2-1169 (KICERK): 21 Ru; for 6mer-2-1170 (KFTIRR): 25 Ru.
Still for that read-out and setting: the same measure for 6mer-2-1171 (KMPARR): 40 Ru.
Same read-out and setting: the same measure for 6mer-2-1172 (KNCERR): 36 Ru; for 6mer-2-1173 (KCCNKK): 38 Ru.
With 6mer-2-1174 (RCEPRK), the Binding affinity amounted to 21 Ru.
Same read-out and setting: in the case of 6mer-2-1175 (RYSKRR) it was 34 Ru; in that of 6mer-2-1176 (RYTEKK), 43 Ru; in that of 6mer-2-1177 (RASEKR), 41 Ru.
The same measure, in the same setting: in the case of 6mer-2-1178 (KTTVRK) it was 30 Ru.
Still for that read-out and setting: in the case of 6mer-2-1179 (KACVKK) it was 34 Ru; in that of 6mer-2-1180 (RAANRR), 34 Ru; in that of 6mer-2-1181 (KACWKR), 32 Ru.
For the substance 6mer-2-1182 (RHNDKR), the Binding affinity was determined as 30 Ru.
The same measure, in the same setting: the same measure for 6mer-2-1183 (RENNRK): 35 Ru.
As for 6mer-2-1184 (KFWVRR), the Binding affinity turned out to be 22 Ru.
The same measure, in the same setting: in the case of 6mer-2-1185 (RIDAKK) it was 42 Ru; in that of 6mer-2-1186 (KEKFRR), 27 Ru.
On the same count and under the same terms, in the case of 6mer-2-1187 (RTADRK) it was 36 Ru; in that of 6mer-2-1188 (RAPARR), 22 Ru; in that of 6mer-2-1189 (KTAPKK), 40 Ru.
Still for that read-out and setting: in the case of 6mer-2-1190 (KACIRR) it was 32 Ru.
For the substance 6mer-2-1191 (KKADRK), the Binding affinity came to 35 Ru.
Same read-out and setting: the same measure for 6mer-2-1192 (KHKNKR): 40 Ru.
Still for that read-out and setting: in the case of 6mer-2-1193 (REKIRR) it was 43 Ru; in that of 6mer-2-1194 (KYCDRK), 35 Ru; in that of 6mer-2-1195 (KMTERK), 25 Ru.
On the same count and under the same terms, the same measure for 6mer-2-1196 (RESKKR): 39 Ru; for 6mer-2-1197 (KNCIKK): 23 Ru.
6mer-2-1198 (RMSHRR): the Binding affinity came out at 27 Ru.
As to 6mer-2-1199 (RCTNKR), the Binding affinity is 27 Ru.
The same measure, in the same setting: in the case of 6mer-2-1200 (RHHNRR) it was 30 Ru.
In the case of 3601 (GRRQRR) [compound 3601], the “Binding affinity, relative value to the RRQRR sequence” value (shortened to “Binding affinity, relative value”) was found to be 132.
Consider 3602 (ARRQRR) [compound 3602], for which the “Binding affinity, relative value” value was 129.
On the same count and under the same terms, in the case of 3603 (VRRQRR) [compound 3603] it was 135; in that of 3604 (CRRQRR) [compound 3604], 123.
On the same count and under the same terms, in the case of 3605 (PRRQRR) [compound 3605] it was 133; in that of 3606 (LRRQRR) [compound 3606], 144.
On the same count and under the same terms, the same measure for 3607 (IRRQRR) [compound 3607]: 121; for 3608 (MRRQRR) [compound 3608]: 119; for 3609 (WRRQRR) [compound 3609]: 138.
As for 3610 (FRRQRR) [compound 3610], the “Binding affinity, relative value” value is 143.
For 3611 (SRRQRR) [compound 3611], the “Binding affinity, relative value” value was found to be 121.
Still for that read-out and setting: the same measure for 3612 (TRRQRR) [compound 3612]: 103; for 3613 (YRRQRR) [compound 3613]: 130.
Regarding 3614 (NRRQRR) [compound 3614], the “Binding affinity, relative value” value worked out at 113.
On the same count and under the same terms, the same measure for 3615 (QRRQRR) [compound 3615]: 105; for 3616 (KRRQRR) [compound 3616]: 173.
For the substance 3617 (RRRQRR) [compound 3617], the “Binding affinity, relative value” value is 189.
Same read-out and setting: the same measure for 3618 (HRRQRR) [compound 3618]: 164; for 3619 (DRRQRR) [compound 3619]: 163.
Same read-out and setting: the same measure for 3620 (ERRQRR) [compound 3620]: 147; for 3621 (RRQRRG) [compound 3621]: 109.
For 3622 (RRQRRA) [compound 3622], the “Binding affinity, relative value” value is 113.
Same read-out and setting: in the case of 3623 (RRQRRV) [compound 3623] it was 120; in that of 3624 (RRQRRC) [compound 3624], 126; in that of 3625 (RRQRRP) [compound 3625], 137.
The same measure, in the same setting: in the case of 3626 (RRQRRL) [compound 3626] it was 141.
On to 3627 (RRQRRI) [compound 3627], for which the “Binding affinity, relative value” value was 133.
For 3628 (RRQRRM) [compound 3628], the “Binding affinity, relative value” value was 122.
Still for that read-out and setting: in the case of 3629 (RRQRRW) [compound 3629] it was 129; in that of 3630 (RRQRRF) [compound 3630], 132; in that of 3631 (RRQRRS) [compound 3631], 113.
On the same count and under the same terms, in the case of 3632 (RRQRRT) [compound 3632] it was 117; in that of 3633 (RRQRRY) [compound 3633], 105.
Same read-out and setting: the same measure for 3634 (RRQRRN) [compound 3634]: 109; for 3635 (RRQRRQ) [compound 3635]: 101.
Regarding 3636 (RRQRRK) [compound 3636], the “Binding affinity, relative value” value is reported as 175.
